For data set [1] the following is noted: physiological pH.
Data set [2] can be described thus: MALDI-TOF mass spectrum of native and microneedle-released insulin/glucagon. It is filed as physicochemical. The note with it: throughout the polymerization process.

As to “insulin: Human recombinant insulin purchased from Thermo Fisher Scientific”, the solubility entry in data set [1] is “high solubility”. The “integrity of protein released from microneedles” value in data set [2] is listed as “stayed intact”.
